The values that follow come from US20190177414A1 (AKESO BIOPHARMA, published 2019).

The target of the experiment is T1, CTLA4 antigen (CTLA4 protein obtained by cleaving the CTLA4-mFc fusion protein with TEV protease) (human, UniProt P16410 36-161).
T1 construct: extracellular domain; after cleavage part of the TEV site may remain at the C-terminus; also called CTLA4ECD
T1 sequence (looked up): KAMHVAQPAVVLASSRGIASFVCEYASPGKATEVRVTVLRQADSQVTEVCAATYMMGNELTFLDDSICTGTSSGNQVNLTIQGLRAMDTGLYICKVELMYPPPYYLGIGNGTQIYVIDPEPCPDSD
As to the kind of experiment: Octet (ForteBio) BLI; antibody amine-coupled to AR2G sensor, CTLA4 antigen in solution. Here is the method:
The dynamic parameters of the antigen—antibody binding were determined using the ForteBio molecular interaction analyzer (Octet). The CTLA4-mFc fusion protein prepared in Example 1 was cleaved using the TEV protease, and the CTLA4 antigen was obtained by purification on a column. […] After equilibration in PBST, the CTLA4 antigen was added for binding. […] Dissociation occurred in PBST.
A general note: In BLI a coated tip is dipped into the sample, and binding shifts an interference pattern.

In general, Kd refers to the free concentration of one partner at which half of the binding sites on the other are occupied at equilibrium, for simple one-to-one binding. A higher Kd goes with weaker binding. One may read the koff as a measure of how fast the partners let go of each other. High values mean a short-lived complex, low ones a long-lived complex. Broadly, the kon is a measure of how fast the partners come together. Higher therefore signals fast association.

B1: anti-CTLA4 antibody 4G10 (antibody, V domains shown)
VH: QVKLQESGPELVKPGASMKISCKASGYSFTGYTMNWVKQSHGKNLEWIGLINPYNNITNYNQKFMGKATFTVDKSSSTAYMELLRLTSEDSGVYFCARLDYRSYWGQGTLVTVSA
VL: QAVVTQESALTTSPGETVTLTCRSSTGAVTTSNFANWVQEKPDHLFTSLIGGTNNRAPGVPARFSGSLIGDKAALTITGAQTEDEAIYFCALWYSNHWVFGGGTKLTVLG
notes: Mouse monoclonal antibody purified from hybridoma supernatant; also called monoclonal antibody secreted by hybridoma cell line LT002 (CTLA4-4G10)
As to B1, the Kd came out at 0.301 nM, the koff amounted to 0.000114 s⁻¹ and the kon came to 378000 M⁻¹ s⁻¹.
